The target in the assay is BiP, murine sequence (hamster BiP mutated to the murine sequence) (murine, UniProt P20029 20-655). The assay can be described thus: SEC. A general note: SEC sorts molecules by how far they enter the pores of the column.
Chain of BiP, murine sequence (hamster BiP mutated to the murine sequence) (P20029 20-655, change not shown): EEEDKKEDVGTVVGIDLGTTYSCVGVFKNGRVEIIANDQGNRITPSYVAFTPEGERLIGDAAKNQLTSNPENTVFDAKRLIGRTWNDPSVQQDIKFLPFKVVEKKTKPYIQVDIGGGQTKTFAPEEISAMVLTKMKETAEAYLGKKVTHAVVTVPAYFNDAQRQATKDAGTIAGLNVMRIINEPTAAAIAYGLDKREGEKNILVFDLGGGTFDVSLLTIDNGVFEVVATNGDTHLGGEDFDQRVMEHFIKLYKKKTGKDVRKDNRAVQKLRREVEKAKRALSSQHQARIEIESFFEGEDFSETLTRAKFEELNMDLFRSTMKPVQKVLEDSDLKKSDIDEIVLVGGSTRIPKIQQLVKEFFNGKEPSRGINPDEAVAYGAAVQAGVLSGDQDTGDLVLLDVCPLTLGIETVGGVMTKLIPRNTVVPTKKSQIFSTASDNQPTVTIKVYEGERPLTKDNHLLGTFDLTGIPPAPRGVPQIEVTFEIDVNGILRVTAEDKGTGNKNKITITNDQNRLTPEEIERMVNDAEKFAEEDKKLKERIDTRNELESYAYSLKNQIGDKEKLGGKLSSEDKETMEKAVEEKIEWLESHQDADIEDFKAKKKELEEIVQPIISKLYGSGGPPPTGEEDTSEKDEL

B1: CH1 domain of the murine IgG1 heavy chain, reduced (domain or fragment)
chain: not shown
modifications: internal disulfide bridge not formed (reduced)
Broadly, the Kd is a measure of binding affinity in units of concentration. A lower Kd goes with a tighter complex. By koff is commonly meant the first-order rate constant of dissociation. A word on the kon: it is a measure of how fast the partners come together. Read a low kon as slower complex formation. In turn, B1 showed a Kd of 4.2 ± 0.4 µM, a koff of 7.83e-05 s⁻¹ and a kon of 6.83 M⁻¹ s⁻¹.

B2: CH1 domain of the murine IgG1 heavy chain, oxidized (internal disulfide bridge formed) (domain or fragment)
chain: not shown
modifications: internal disulfide bridge formed (oxidized; Cys25-Cys80)
B2 showed a dissociation constant (Kd) of 12.6 ± 0.7 µM, an off-rate constant (koff) of 8.33e-05 s⁻¹ and a kon of 4.33 M⁻¹ s⁻¹.

The record behind these values is paper PMC2908990 (Molecular cell, 2009).
